Test results from patent publication US20230174610A1 (Harvard, published 2023).

T1: RXFP1 receptor expressed by transient transfection in HEK293T cells (UniProt Q9HBX9 1-757, limits assumed)
T1 sequence (looked up): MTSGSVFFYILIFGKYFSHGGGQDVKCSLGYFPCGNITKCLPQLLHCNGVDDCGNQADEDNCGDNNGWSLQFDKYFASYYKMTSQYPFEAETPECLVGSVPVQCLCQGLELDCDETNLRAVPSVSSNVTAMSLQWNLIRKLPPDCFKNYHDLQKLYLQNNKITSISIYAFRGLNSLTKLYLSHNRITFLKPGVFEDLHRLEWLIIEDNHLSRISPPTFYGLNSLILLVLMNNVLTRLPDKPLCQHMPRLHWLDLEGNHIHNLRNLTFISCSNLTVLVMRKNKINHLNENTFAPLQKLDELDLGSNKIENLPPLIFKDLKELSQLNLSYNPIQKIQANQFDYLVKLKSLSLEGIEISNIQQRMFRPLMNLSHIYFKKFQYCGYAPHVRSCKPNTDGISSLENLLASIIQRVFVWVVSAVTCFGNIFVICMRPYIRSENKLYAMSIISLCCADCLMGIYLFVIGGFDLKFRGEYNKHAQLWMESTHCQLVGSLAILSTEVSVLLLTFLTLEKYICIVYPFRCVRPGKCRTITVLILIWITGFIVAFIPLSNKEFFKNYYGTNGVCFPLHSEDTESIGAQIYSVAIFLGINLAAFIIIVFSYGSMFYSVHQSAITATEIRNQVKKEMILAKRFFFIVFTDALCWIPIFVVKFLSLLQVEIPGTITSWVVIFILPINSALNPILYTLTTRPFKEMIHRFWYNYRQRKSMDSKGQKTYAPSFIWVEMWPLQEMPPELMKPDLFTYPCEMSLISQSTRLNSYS

B1: SE401, Single-chain relaxin with the combined substitutions of SE201, 204-207, fused to the C-terminus of mouse serum albumin with an N-terminal 8X His-tag (other)
chain: HHHHHHHHRGVFRREAHKSEIAHRYNDLGEQHFKGLVLIAFSQYLQKCSYDEHAKLVQEVTDFAKTCVADESAANCDKSLHTLFGDKLCAIPNLRENYGELADCCTKQEPERNECFLQHKDDNPSLPPFERPEAEAMCTSFKENPTTFMGHYLHEVARRHPYFYAPELLYYAEQYNEILTQCCAEADKESCLTPKLDGVKEKALVSSVRQRMKCSSMQKFGERAFKAWAVARLSQTFPNADFAEITKLATDLTKVNKECCHGDLLECADDRAELAKYMCENQATISSKLQTCCDKPLLKKAHCLSEVEHDTMPADLPAIAADFVEDQEVCKNYAEAKDVFLGTFLYEYSRRHPDYSVSLLLRLAKKYEATLEKCCAEANPPACYGTVLAEFQPLVEEPKNLVKTNCDLYEKLGEYGFQNAILVRYTQKAPQVSTPTLVEAARNLGRVGTKCCTLPEDQRLPCVEDYLSAILNRVCLLHEKTPVSEHVTKCCSGSLVERRPCFSALTVDETYVPKEFKAETFTFHSDICTLPEKEKQIKKQTALAELVKHKPKATAEQLKTVMDDFAQFLDTCCKAADKDTCFSTEGPNLVTRCKDALAGGSDSWKEEVIKLCGRELVRAQIAICGKSTASDAAGANANAGARQLYSALANKCCHVGCTKRSLARFC
B2: SE001, His-tag single-chain relaxin (ligand)
chain: HHHHHHDSWMEEVIKLCGRELVRAQIAICGMSTWSDAASSHSHSSARQLYSALANKCCHVGCTKRSLARFC
B3: SE005, Truncated His-tag single-chain relaxin (ligand)
chain: HHHHHHEEVIKLCGRELVRAQIAICGMSTWSDAASSHSHSSARQLYSALANKCCHVGCTKRSLARFC
B4: SE004, Protein C-tag and His-tag single-chain relaxin (ligand)
chain: EDQVDPRLIDGKGSHHHHHHDSWMEEVIKLCGRELVRAQIAICGMSTWSDAASSHSHSSARQLYSALANKCCHVGCTKRSLARFC

target: T1, RXFP1 receptor expressed by transient …; experiment: cell-based or functional assay

Going from B1 to B3, the EC50 falls from 52.6 nM to 0.485 nM (110-fold).

B4 was tested, and the EC50 was 1.5 nM.

First: B1
Second: B2
The “Emax (Native two-chain relaxin = 100% Emax)” value of the first is higher: 121% for the first, 118% for the second.

Going from B3 to B4, the “Emax (Native two-chain relaxin = 100% Emax)” value rises from 112% to 117%.
